*1 amine or outer side, *2 acyl side, *3 side chain or, on linkers, in order; H or OH if unused. Where no end group is shown, it is not given here. [ ]: non-standard residue; d: D form. Trp(For) = Nin-formyl-tryptophan, O=Cn1cc(C[C@H](N[*:1])C(=O)[*:2])c2ccccc21; Tyr(Me) = O-methyl-tyrosine, COc1ccc(C[C@H](N[*:1])C(=O)[*:2])cc1; Phe(4-CONH2) = NC(=O)c1ccc(C[C@H](N)C(=O)O)cc1; Trp(1-Me) = Cn1cc(C[C@H](N)C(=O)O)c2ccccc21; Phe(4-Me) = Cc1ccc(C[C@H](N)C(=O)O)cc1; Cit = NC(=O)NCCC[C@H](N)C(=O)O; Lys(Me) = CNCCCC[C@H](N)C(=O)O
Key:
[1] = molecular target: Human polyclonal immunoglobulin G (IgG) (human); assay: affinity chromatography, peptide on Toyopearl resin, pure human IgG load; yield = IgG eluted/IgG loaded, by Protein G chromatography
[2] = molecular target: Human polyclonal immunoglobulin G (IgG) (human); assay: affinity chromatography, peptide resin, 10 mg/mL hIgG in PBS; 3rd run, after alpha-chymotrypsin and then trypsin
[3] = molecular target: Human polyclonal immunoglobulin G (IgG) (human); assay: affinity chromatography, peptide resin, 10 mg/mL hIgG in PBS; 1st run, before any enzyme
[4] = molecular target: Human polyclonal immunoglobulin G (IgG) (human); assay: affinity chromatography, peptide resin, 10 mg/mL hIgG in PBS; 2nd run, after resin contacted with alpha-chymotrypsin
[5] = molecular target: Human polyclonal immunoglobulin G (IgG) (human); assay: affinity chromatography of Cohn fraction II+III on peptide resin; binding buffer PBS + 0.13M NaCl
[6] = molecular target: Human polyclonal immunoglobulin G (IgG) (human); assay: affinity chromatography of Cohn fraction II+III on peptide resin; binding buffer PBS + 0.25M NaCl
[7] = molecular target: Human polyclonal immunoglobulin G (IgG) (human); assay: affinity chromatography of Cohn fraction II+III on peptide resin; binding buffer PBS + 0M NaCl

Binder | IgG yield [1] | IgG yield [2] | IgG yield [3] | IgG yield [4] | IgG yield [5] | IgG yield [6] | IgG yield [7]
HW[Cit]GWV-{Toyopearl AF‑Amino‑650M resin} [HWCitGWV] | 91% | 71% | 91% | 73% |  |  | 
H[Phe(4-CONH2)][Cit][Cit]HL [HFCarbCitCitHL] | 53% |  |  |  |  |  | 
Ac-HWRGWV-{Toyopearl AF‑Amino‑650M resin} [Ac-HWRGWV] |  |  |  |  | 84% | 83% | 91%

Continued, values first:

IgG yield [1] | IgG yield [2] | IgG yield [3] | IgG yield [4] | IgG yield [5] | IgG yield [6] | IgG yield [7] | Binder
75% | 69% | 75% | 69% |  |  |  | H[Trp(For)][Cit]G[Trp(For)]V (not fully specified (C-terminus)) [HWForCitGWForV]
49% |  |  |  |  |  |  | H[Tyr(Me)][Phe(4-Me)][Lys(Me)][Phe(4-Me)]D-{Toyopearl AF‑Amino‑650M resin} [HYMetFMetKMetFMetD]
91% | 82% | 91% | 91% |  |  |  | H[Trp(1-Me)]RG[Trp(1-Me)]V-{Toyopearl AF‑Amino‑650M resin} [HWMetRGWMetV]
